Results reported in IntAct's records for PubMed 23286197.

B1: MIF4G domain-containing protein (Homo sapiens), A9UHW6 (parent)
chain: MGEPSREEYKIQSFDAETQQLLKTALKDPGAVDLEKVANVIVDHSLQDCVFSKEAGRMCYAIIQAESKQAGQSVFRRGLLNRLQQEYQAREQLRARSLQGWVCYVTFICNIFDYLRVNNMPMMALVNPVYDCLFRLAQPDSLSKEEEVDCLVLQLHRVGEQLEKMNGQRMDELFVLIRDGFLLPTGLSSLAQLLLLEIIEFRAAGWKTTPAAHKYYYSEVSD

Variants of: B1
Details: with slbp_human SLBP

Row | effect of a mutation on the interaction | Variant
1 | with no effect | R57A
2 | with no effect | R82A
3 | with no effect | R157A
4 | with no effect | Y60A
5 | with no effect | E7A
6 | with no effect | R76A
7 | disrupting interaction | R202A

Continued, variant first:

Row | Variant | effect of a mutation on the interaction
8 | F75A | with no effect
9 | H44A | with no effect
10 | E200A | increasing interaction
11 | Q64A | with no effect
12 | K10A | with no effect
